Results taken from the domain aggregation screens of Martell et al. (2025).

Experiment: soluble fraction after stress (log2 fold change); higher = more stays soluble; pooled small domains, quantitative proteomics
Conditions: stress: 50 degC
Method in brief: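 The measure of aggregation propensity here is the base-two logarithm of the fold change in the soluble amount of each protein after stress. A higher value means more of that protein stays in solution. Stress was applied at 50°C to pooled libraries of small protein domains, read out by high-throughput quantitative proteomics.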

Sequence	soluble fraction (log2)
HMSQTPDLQQERANLGDNADARIEAVDLWANKFFPEEHADAILQIGQTAKGIEALEFIMSKV	0.0193
HMKEDNPIVLINLQAKEGEWVFKGTGLPYVGKYHQHKNGEYMIGIGVLNLNHELKPDEIIIPNPNK	-0.109
HMTKEGVNISITADGVQLSTESPNRVSIFNVNGTKVWEGIAPANVSLQKGVYILQTANGNTKFV	0.265
HMEWTDHLAEELRSLAVEGEHLEIIANKLGISPGSARAKLVNLNIYNDYQLAHIERLEADTLQAK	-0.318
HMPIRVGDAFESLAGVFPDEYNKALRKSTKKPVFFVPVKVEAGSGALRQKGKITFIVKDGRIDAIQIAL	-1.21
HMVDVEMLTTVSDHIEAKLLQGILENHGIPSYSVDEESGEYMRVYMGYSIFGEKIYVRASDLLAAQGYL	-2.25
HMVDLDIENYELEDILNLFRLQYNFVEADLKRAYRMALKLHPDKSGLDGEYFRFYMKAYKIVENIFNFRNR	-1.78
HMLSYIELTVDNTSKASYIMTDKMKINNFKIIGNNTIRVYENKVSPQDISRTLSMNNVSIEALGRKS	-1.03
HMKRIHLSDEEKTDLESLHYSSNDGKQRDRIKAVLLRSEGWTVPMISQALRIHETTVTRYLNDYREGKLKN	0.00871
HMDLRYKVQYNFIDQGMMTKDELLKFSLNQDDVSKIAVFDNDSKQWKEIYAITEISEKLGIS	-0.0611
HMLSLGQQIRNHVLSRIESGEWPEGSRIPSEAKLVELLGASRMTIHIALRDLSAEGVLLRKQGAGTFVAPR	-2.47
HMQPYTYNPNFLSDYRAYSLGIPLEAYDKLVQFRASGSFVNSMSDFQKITGVSDSLLAVLHSKFRYPK	-0.884
HMPYSAAVTFLDDAKQPMVNYNYRLIAENGIEVSGITDEFGKTQPIQTDQREKVDLYIADLPN	0.495
HMEAVIGGIYRHYKGNNYKLLAVATHSETLEKMAVYQALYGEMGIWVRPLAMFMETIEKDGQSLKRFE	-1.78
HMHSRTWTSADGVKTFEGELQSYDAASGKVSVILPNHKRITFKQEKLSADDIAWLEKNGNRP	0.102
HMSADIGAEKAKTIALNHAGVSASNAVFLHAKLDYDDGRRTYEVEFYSGSKEYDYEIDAATGEILSYDFD	-0.777
HMGFTDREREIIRNDLVATGRELFGTFGLKKTSIEDLTKAVGIAQGSFYTFFNSKEELYLEVMDREGEA	-0.851
HMYHADLIGLRVETAAGEKLGTVKAVHNFGAGDVIEITGAEDKDGLMVPFTAEVVPEVDIENGRIVVS	-0.331
HMNKTEIISILEKIVLPTQIRNINIFGSEVIIDLNIDNPSLHAKKKLEKSIINSFDKNHKIIINFNVE	-0.232
HMERDVNQLTPRERDILKLIAQGLPNKMIARRLDITESTVKVHVKHMLKKMKLKSRVEAAVWVHQERI	-1.38
HMISDAEWKIMNVLWEEQPRTMMQITKELQEETGWTKHTVMTYLKRMESKKIIHYVEGEKAKLYYS	-0.0967
HMALTAEVLRSLIKHHGLGQSIQRTAKAVGLSASTVKKYFDRIAAANLTWQEAKSRTQEELIASLQPT	-0.358
HMGSTDTLEDALEAAEKISYPVIIKATAGGGGRGMKVASSLEELKKVYHTTKLEAKNAFGNDQVYIEKYL	0.116
HMNLEQTIVLGKRLFNNALDTLGKKQRSIKNKQINKLLELLNFKNMNELYQSIGVGDKNPLLMAQMML	-0.458
HMRNPLYAQVADYVMQQIAAGTYRPHQAIPTEWQLAKKLEVSQGTVRKGLDELVFKQILYRQQGVGTFVAD	-1.19
HMDASSTGFLGKHVQIVGLVSQPHLNGRRGVASRFDSNRRRYLVRLDEIDGHAEVVAFRPDNLVLSNLL	-0.573
HMDTIAEFIAELTPLEQKVFHVYYEKGQSLKDTAQQAEITSTSARGALDRIRAKGRHFHLAVILFIG	-0.622
HMQVAPQVERLLRVMGNETLSLSDIMGRMGLSDKKNFRESYLVPALRSAVIEMTIPDKPNSSLQKYRRIHE	-0.176

Sequence	soluble fraction (log2)
HMSYTAYLSQELGDMSREIQSELLKKGYNGSSSFTIVRTYMGSSVKFSVYNANNGELITSKTINM	-1.93
HMHQGTIEVGSIVHIEGQKALGTILSLTQREAIVGLGALKTTIPLKRLHLATEAEARRHKKSVTPQEAV	0.0611
HMRLEYLVDVEEISIKEYLMLLGLSRRLARKIKLYGKMYINHQEAFNYHLVKKGDLLTIEFDE	-2.55
HMQDAVASEKIQLMSEALHARDTGDLLLAKEKVEKLIALAPNDKNIQALLLTINQSIEDKGL	0.101
HMLLFNVADIVKRAKRVLNFKTDAELAAYLGVSRPTLSNWIARNGIDFPLLLEKLKEIDYNWLLVGKGKPE	-2.33
HMNKKETRLNNFIHFLKIRNSITVKEMANHLNVSEMTVRRDIKELTADHTINFENGKIMFNPQSSL	-1.06
HMFAATGTVNTEGSSLRLRAEASTSSSVLKQLSHGTQVDVLSGLVDGWYQVSYKGTTGYVSGEYLTVTE	-0.451
HMGGPEVLELEDVKVGSPGPDEIKVTNHAIGLNYIDTYHRSGLYPLKLPSGIGLEAAGKVEEIGSNV	0.0604
HMGRQTITLPDFSGQDLEQVKARLTEWGLVPEEKSVFSDSVPLGSVVRTVPAEGDEVSVGDTVTVYKSLGR	0.0656
HMGLDERNLKLFAASLLEQAGKKITESTMTYLLDKTGSDMENIQNEVEKIIGYTMNHTVVTTEDIDAV	-0.271
HMKYKTKRDMILALMKKEILSGELKPRTRLLISEVASRYEVSEIPVREAFQVLIQEDLVRSTGAGFEVT	-0.744
HMRPAAELGLPHAPKHFIQYLTEDDRPQVLKDVDYEGGMGVSIGRLREDSIFDWKFVGLAHNTL	0.062
HMAVNDPDEKFIELGIPADWVQVVRKAGFQTVEALKTVENPNKLHQELSGLNKKMKLGLKTLSQDEVKDWF	0.215
HMKFPPELVEFIEGLSLLKPPLNYATVHRRAEKLAIKKGWASPSYSTVRNIIRKLSPALTTLAHEG	-2.15
HMETLTPQEHKVLLLAVKGRTNGEIASELGIAQNTVKNHLAHIYAKMGVGNRTELASEYLRRIH	0.0726
HMFSWRQHLDHFGFSDEIKKRLADAVFLNDDWNEIDRGVLTKEELLARFIENDPGIEKEIYMVMENIN	-0.509
HMSSWEEQLKIWAKNELASGNTDILARATVSFEQILIEAALTHTGGRKKTAAELLGWGRNTLTRKIKELHI	-0.29
HMPYEHQRAVGALIRRLREQQGWSQRALADWVHMDQSAVSRVETGQRSVTAEELGRFADALHVSTDALVR	-0.291
HMGMNSGQADFRGISLALSVDAEAEAQRLFTALADGGQVQMPLSKTFFSPAFGMVADRFGVGWMVVTN	0.247
HMIKEVEYSQFLQMTDQGEVGKVEINEQENSILFTDKAEKNIYKTGMVEDAELSMRLYEAGIPFSGQI	-0.0245
HMSRLGINTTIEDIKMVGKIIMPLLKQGQSVYQILASHPEIPYSEKTLYSYIEDNIFKDAGIDISVFDL	-0.931
HMGRYATVPDVVGSTPEVARELIRSEGLRYVLSEETVYSDSDTGTVGRTDPESGTRMSADDEVVVYLS	0.0355
HMSLEDNEVIQRMKVILDRFDEETAVDRTTAFKAVLDHIGKMDAESKTLEHMAEMLEALLDKVLEE	-0.237
HMTIGPALAIGGNKVEMTQQGKIQVTNPQGKIKTLSQDEFKKQLVKNADKIEAGQDFEFKKD	0.263
HMSVKVFRDQILLNNDSDKMLQLSFSNLFGQKVLETSISPGKSAISTGNLPPGIYFITTSPATGVMRVII	-1.12
HMSKGKNEVIAYLKAHNDHRLTVAEILDGLKEEGISINRSTIYRNLDKLVENGDILAFKGKDSESAFYQYS	0.0754
HMIKVASVDGASDELAHEIREIMPLDFPVSYFDLDIKYLHKVLNDIPAVESAAIKVTVSGVLQIDISER	0.43
